Two molecules from patent US20220403332A1, “SELF-ORGANIZING NEURAL ECTODERMAL LINEAGE CELLULAR STRUCTURES, AND COMPOSITIONS AND METHODS RELATING THERETO” (THE ROCKEFELLER UNIVERSITY, priority 2019, published 2022) can be followed below.

Holding throughout (type): cell-based, human
For experiment [1], the system named is day 7 neuruloid. Kind of experiment: neuruloid formation with blebbistatin, day 7 immunofluorescence. Particulars: day 7 neuruloid treated with Blebbistatin 5 μM; stained for DAPI, N-CAD, PAX6, COL4 (FIG. 12E). From the text:
FIG. 12—related to FIG. 6. (A) RUES2 and 56CAG background distribution within the main cell populations found in the neuruloid. All clusters are well represented in either background although 56CAG has a higher relative proportion of NC and placode cells. (B) Gene ontology analyses using DAVID (www.david.ncifcrf.gov) for NE- and NC-specific DEG between RUES2 and 56CAG. (C) Violin plots showing the distribution of normalized gene expression values for the genes in FIGS. 6B and 6C. (D) qPCR validation of the down-regulation of WNT/PCP and cytoskeleton-associated genes in the 56CAG neuruloid versus WT RUES2. (E) Representative image of a day 7 neuruloid treated with Blebbistatin (5 μM) and stained for DAPI, N-CAD, PAX6, and COL4. (Top) side view, (Bottom) top view.
In order to unravel the molecular mechanisms underlying the morphogenetic defect, single-cell RNA-seq data of neuruloids in WT and 56CAG background was explored. All major cell populations found in the WT neuruloid were also present in the 56CAG background, supporting the lack of influence on fate specification (FIG. 12A). […] Using Seurat to identify differentially expressed genes (DEG) between 56CAG and RUES2 cell lines, 499 misregulated genes specific to the NE (adjusted p-value ≤0.05 and a minimum percentage difference in cells expressing the gene ≥10%) and 663 specific for the NC population was found (FIG. 6E). […]

Experiment [2] deals with pSMAD1. The experiment in a line: signaling dynamics time-course after BMP4 presentation (immunofluorescence, western blot). The procedure:
FIG. 4 depicts coupling of cell fate specification with a two-step morphogenesis mechanism during neuruloid formation. (A) (Top) time course immunofluorescence analysis of the neuruloid from day 3 to 4. Day 3 micropattern colonies were treated with BMP4 (3 ng/ml) for 1, 3, 5, 10, and 24 hours then stained with PAX6, pSMAD1, and TFAP2A. (Bottom Left) Western blot analysis of the micropattern colonies treated with BMP as above. Sample were stained with anti-pSMAD1/5 antibody. Anti-total SMAD antibody was used as a control. (Bottom Right) Quantification of the western blot analysis. (B) Time-lapse video microscopy imaging of neuruloid formation from day 3 to 6 using the live reporter line (PAX6::H2B-Citrin and SOX10::H2B-tdTomato). Images were recorded every 30 min from day 3 to the end of day 5 (66 hours total). Representative images are shown (a; first image of day 3, b; first image of day 4, c; first image of day 5, d; last image of day 5). […] (E) Associated quantification of PAX6, SIX1, and SOX10 area of the neuruloid treated with indicated drugs. […]
To uncover the molecular mechanisms of neuruloid self-organization, the signaling dynamics over a time-course after BMP4 presentation was followed. […] Only a few SOX10+ cells were detected during this initial phase, but a large expansion occurred in the SOX10 area concomitant with the PAX6 domain condensation starting at day 5. […]

Experiment [3] deals with 500 μm micropatterned colonies (hESCs, RUES2). The experiment in a line: neuruloid formation at different BMP4 concentrations, day 7 immunofluorescence. Particulars: 500 μm colonies at day 7. From the text: FIG. 2 depicts self-organization into neuruloids on micropatterns. (A) Schematic of the neuruloid differentiation protocol. (B) Immunofluorescence imaging of 80, 200 and 500 μm of day 7 micropatterned colonies. Samples were stained with DAPI (gray), PAX6 (green), and N-CAD (orange). (C) Immunofluorescence imaging of 500 μm of day 7 micropatterned colonies. Samples were stained with DAPI (gray), PAX6 (green), and COL4 (Collagen IV, orange). Side view of resliced z-stack around PAX6+ center region, colony edge region is also shown. (D) replicates with PAX6 (green) and SOX10 (red). (E) (Left) Immunofluorescence imaging of 500 μm micropatterned colonies at day 7 with different BMP4 concentrations: 0, 3, 13, and 50 ng/ml. Samples were stained with PAX6 (green), SOX10 (red) and cranial placode marker SIX1 (orange). (Right) Quantifications of SIX1 positive cell number. Data are mean±standard deviation. (F) (Top Left) Sketch of the ectodermal compartment at neurulation in vivo. (Top Right) Sketch of the neuruloid on micropattern. (Middle panel) Side view of the day 7 neuruloid with 3 ng/ml of BMP. Samples were stained with DAPI, PAX6, SOX10, SIX1, and non-neural ectoderm maker TFAP2A. Note that the TFAP2A+ also stain a few SOX10 and SIX1 positive cells. The non-neural ectoderm cells are only TFAP2A positive. (Bottom) Top view by multiple z from bottom to top. All scale bars represent 50 μm. […]

As to `Cc1ccc2c(c1)C(=O)C1(O)CCN(c3ccccc3)C1=N2` (centres unmarked) [blebbistatin], the “central neuro-epithelium morphology (opened versus closed)” value in experiment [1] is “phenocopies the opened neuro-epithelium observed in HD and Htt−/− neuruloids”.

B1: BMP4: bone morphogenetic protein (BMP) used as morphogen to drive neuruloid formation (protein, UniProt P12644 293-408, looked up)
Bone morphogenetic protein 4: SPKHHSQRARKKNKNCRRHSLYVDFSDVGWNDWIVAPPGYQAFYCHGDCPFPLADHLNSTNHAIVQTLVNSVNSSIPKACCVPTELSAISMLYLDEYDKVVLKNYQEMVVEGCGCR
In the case of B1, in experiment [2] (24 hours after BMP4 (3 ng/ml) presentation at day 3), the TFAP2A induction entry is given as “induction of TFAP2A+ in the same domain”. The “pSMAD1 signaling after BMP4 presentation” value in experiment [2] (day 3 colonies treated with BMP4 3 ng/ml for 1, 3, 5, 10, 24 hours (FIG. 4A)) is given as “pulse of pSMAD1 restricted to the colony edge”. Further, the “overall spatial distribution of cell types” value in experiment [3] (BMP4 0, 3, 13 and 50 ng/ml from day 3) is “independent of BMP4 concentration”. For the same molecule, in experiment [3] (BMP4 0, 3, 13 and 50 ng/ml from day 3 (FIG. 2E, 8H)), the “number of SIX1+ cells” value is listed as “peaked at intermediate levels”.
